{
  "source": "the RNAGym collection of RNA variant scans (doi:10.1093/molbev/msab373)",
  "parents": {"B1": {"name": "Azoarcus group I ribozyme (parent)", "chain": "GUGCCUUGCGCCGGGAAACCACGCAAGGGAUGGUGUCAAAUUCGGCGAAACCUAAGCGCCCGCCCGGGCGUAUGGCAACGCCGAGCCAAGCUUCGGCGCCUGCGCCGAUGAAGGUGUAGAGACUAGACGGCACCCACCUAAGGCAAACGCUAUGGUGAAGGCAUAGUCCAGGGAGUGGCGAAAGUCACACAAACCGG"}},
  "data": [
    {"variants_of": "B1", "assay": "reverse-splicing fitness (ratio to wild type); higher = more active; in vitro selection; Mg2+ level not given", "procedure,_shortened": "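An in vitro group I ribozyme library with randomized positions was T7-transcribed and gel-purified. In triplicate, 10 pmol RNA in EPPS pH 7.5 was reacted with 50 pmoles of a 30-nt RNA substrate for 1 h at 37 °C across several added MgCl2 levels (1–48 mM), then stopped with EDTA. Products were reverse transcribed from a substrate-complementary primer, PCR-amplified and sequenced (HiSeq 4000). Fitness is a variant's read proportion after selection over that before, normalised to wild type.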", "values": [
      {"variant": "C82U A111G A120C C169U U176G", "reverse-splicing fitness": 0.00349},
      {"variant": "C82U A111G A120G A145G C150A C169U", "reverse-splicing fitness": 0.00914},
      {"variant": "C82U A111G A120G A145G C150A C169G", "reverse-splicing fitness": 0.009},
      {"variant": "C82U A111G A120G A145G C150A C169A", "reverse-splicing fitness": 0.00945},
      {"variant": "C82U A111G A120G A145C C150U C169G U176A", "reverse-splicing fitness": 0.0203},
      {"variant": "C82U A111G A120G A145C C150U C169G U176C", "reverse-splicing fitness": 0.0111},
      {"variant": "C82U A111G A120G A145C C150U C169G U176G", "reverse-splicing fitness": 0.0045},
      {"variant": "C82U A111G A120U A145C C150A C169U U176G", "reverse-splicing fitness": 0.00196},
      {"variant": "C82U A111G A120U A145C C150A C169U U176C", "reverse-splicing fitness": 0.00235},
      {"variant": "C82U A111G A120U A145C C150A C169U U176A", "reverse-splicing fitness": 0.00182},
      {"variant": "C82U A111G A120U A145C C150G C169U U176A", "reverse-splicing fitness": 0.00227},
      {"variant": "C82U A111G A120U A145C C150G C169U U176G", "reverse-splicing fitness": 0.00181},
      {"variant": "C82U A111G A120U A145C C150G C169U U176C", "reverse-splicing fitness": 0.00213},
      {"variant": "C82U A111G A120G C150A U176G", "reverse-splicing fitness": 0.00658},
      {"variant": "C82U A111G A120G C150A U176C", "reverse-splicing fitness": 0.016},
      {"variant": "C82U A111G A120G C150A U176A", "reverse-splicing fitness": 0.00996},
      {"variant": "C82U A111G A120G C150A C169U U176C", "reverse-splicing fitness": 0.0157},
      {"variant": "C82U A111G A120G C150A C169U U176G", "reverse-splicing fitness": 0.00765},
      {"variant": "C82U A111G A120G C150A C169U U176A", "reverse-splicing fitness": 0.0248},
      {"variant": "C82U A111G A120G A145U C150U C169U U176C", "reverse-splicing fitness": 0.0131},
      {"variant": "C82U A111G A120G A145U C150U C169U U176G", "reverse-splicing fitness": 0.00432},
      {"variant": "C82U A111G A120G A145U C150U C169U U176A", "reverse-splicing fitness": 0.02},
      {"variant": "C82U A111G A120G A145U C150A C169G U176G", "reverse-splicing fitness": 0.00398},
      {"variant": "C82U A111G A120G A145U C150A C169G U176A", "reverse-splicing fitness": 0.0124},
      {"variant": "C82U A111G A120G A145U C150A C169G U176C", "reverse-splicing fitness": 0.0137},
      {"variant": "C82U A111G A120G A145G C150U C169A", "reverse-splicing fitness": 0.0108},
      {"variant": "C82U A111G A120G A145G C150U C169G", "reverse-splicing fitness": 0.0111},
      {"variant": "C82U A111G A120G A145G C150U C169U", "reverse-splicing fitness": 0.0114},
      {"variant": "C82U A111G A120G A145U C169A U176G", "reverse-splicing fitness": 0.00425},
      {"variant": "C82U A111G A120G A145U C169A U176A", "reverse-splicing fitness": 0.0102},
      {"variant": "C82U A111G A120G A145U C169A U176C", "reverse-splicing fitness": 0.00896},
      {"variant": "C82U A111G A120U A145C C150U U176C", "reverse-splicing fitness": 0.00518},
      {"variant": "C82U A111G A120U A145C C150U U176A", "reverse-splicing fitness": 0.00377},
      {"variant": "C82U A111G A120U A145C C150U U176G", "reverse-splicing fitness": 0.00212},
      {"variant": "C82U A111G A120G C150G", "reverse-splicing fitness": 0.00676},
      {"variant": "C82U A111G A120G C150A", "reverse-splicing fitness": 0.00982},
      {"variant": "C82U A111G A120G C150U", "reverse-splicing fitness": 0.0125},
      {"variant": "C82U A111G A120G C150A C169G U176G", "reverse-splicing fitness": 0.00435},
      {"variant": "C82U A111G A120G C150A C169G U176C", "reverse-splicing fitness": 0.0197},
      {"variant": "C82U A111G A120G C150A C169G U176A", "reverse-splicing fitness": 0.0186},
      {"variant": "C82U A111G A120U A145C C150G U176A", "reverse-splicing fitness": 0.0026},
      {"variant": "C82U A111G A120U A145C C150G U176G", "reverse-splicing fitness": 0.00159},
      {"variant": "C82U A111G A120U A145C C150G U176C", "reverse-splicing fitness": 0.00405},
      {"variant": "C82U A111G A120G A145U C150G C169G U176G", "reverse-splicing fitness": 0.00427},
      {"variant": "C82U A111G A120G A145U C150G C169G U176C", "reverse-splicing fitness": 0.00487},
      {"variant": "C82U A111G A120G A145U C150G C169G U176A", "reverse-splicing fitness": 0.00667},
      {"variant": "C82U A111G A120G A145U C169U U176G", "reverse-splicing fitness": 0.00342},
      {"variant": "C82U A111G A120G A145U C169U U176C", "reverse-splicing fitness": 0.0133},
      {"variant": "C82U A111G A120G A145U C169U U176A", "reverse-splicing fitness": 0.0208},
      {"variant": "C82U A111G A120G A145G C150G C169G U176G", "reverse-splicing fitness": 0.00529},
      {"variant": "C82U A111G A120G A145G C150G C169G U176C", "reverse-splicing fitness": 0.011},
      {"variant": "C82U A111G A120G A145G C150G C169G U176A", "reverse-splicing fitness": 0.00945},
      {"variant": "C82U A111G A120C C169G U176C", "reverse-splicing fitness": 0.0156},
      {"variant": "C82U A111G A120C C169G U176A", "reverse-splicing fitness": 0.0168},
      {"variant": "C82U A111G A120C C169G U176G", "reverse-splicing fitness": 0.00426},
      {"variant": "C82U A111G A120G C169U U176C", "reverse-splicing fitness": 0.0174},
      {"variant": "C82U A111G A120G C169U U176A", "reverse-splicing fitness": 0.023},
      {"variant": "C82U A111G A120G C169U U176G", "reverse-splicing fitness": 0.00533},
      {"variant": "C82U A111G A120G A145G C150A C169G U176G", "reverse-splicing fitness": 0.00482},
      {"variant": "C82U A111G A120G A145G C150A C169G U176A", "reverse-splicing fitness": 0.0174},
      {"variant": "C82U A111G A120G A145G C150A C169G U176C", "reverse-splicing fitness": 0.0228},
      {"variant": "C82U A111G A120U A145C", "reverse-splicing fitness": 0.0379},
      {"variant": "C82U A111G A120U A145G", "reverse-splicing fitness": 0.0428},
      {"variant": "C82U A111G A120G A145C C169G U176G", "reverse-splicing fitness": 0.0039},
      {"variant": "C82U A111G A120G A145C C169G U176C", "reverse-splicing fitness": 0.0158},
      {"variant": "C82U A111G A120G A145C C169G U176A", "reverse-splicing fitness": 0.0238},
      {"variant": "C82U A111G A120G A145U C169A", "reverse-splicing fitness": 0.00841},
      {"variant": "C82U A111G A120G A145U C169U", "reverse-splicing fitness": 0.0103},
      {"variant": "C82U A111G A120G A145U C169G", "reverse-splicing fitness": 0.0113},
      {"variant": "C82U A111G A120G A145U C150U C169A", "reverse-splicing fitness": 0.00925},
      {"variant": "C82U A111G A120G A145U C150U C169U", "reverse-splicing fitness": 0.00963},
      {"variant": "C82U A111G A120G A145U C150U C169G", "reverse-splicing fitness": 0.0107},
      {"variant": "C82U A111G A120G A145C C150G C169G U176A", "reverse-splicing fitness": 0.00868},
      {"variant": "C82U A111G A120G A145C C150G C169G U176C", "reverse-splicing fitness": 0.00692},
      {"variant": "C82U A111G A120G A145C C150G C169G U176G", "reverse-splicing fitness": 0.00399},
      {"variant": "C82U A111G A120U A145C C150U C169A", "reverse-splicing fitness": 0.00187},
      {"variant": "C82U A111G A120U A145C C150U C169U", "reverse-splicing fitness": 0.00249},
      {"variant": "C82U A111G A120U A145C C150U C169G", "reverse-splicing fitness": 0.00245},
      {"variant": "C82U A111G A120U A145C C150G C169G U176C", "reverse-splicing fitness": 0.00251},
      {"variant": "C82U A111G A120U A145C C150G C169G U176G", "reverse-splicing fitness": 0.00197},
      {"variant": "C82U A111G A120U A145C C150G C169G U176A", "reverse-splicing fitness": 0.00255},
      {"variant": "C82U A111G A120G A145U C150A C169U U176C", "reverse-splicing fitness": 0.0142},
      {"variant": "C82U A111G A120G A145U C150A C169U U176A", "reverse-splicing fitness": 0.019},
      {"variant": "C82U A111G A120G A145U C150A C169U U176G", "reverse-splicing fitness": 0.0048}
    ]}
  ]
}
